Biological target: T1, full-length human MICAL1 (human) (UniProt Q8TDZ2)
T1 sequence: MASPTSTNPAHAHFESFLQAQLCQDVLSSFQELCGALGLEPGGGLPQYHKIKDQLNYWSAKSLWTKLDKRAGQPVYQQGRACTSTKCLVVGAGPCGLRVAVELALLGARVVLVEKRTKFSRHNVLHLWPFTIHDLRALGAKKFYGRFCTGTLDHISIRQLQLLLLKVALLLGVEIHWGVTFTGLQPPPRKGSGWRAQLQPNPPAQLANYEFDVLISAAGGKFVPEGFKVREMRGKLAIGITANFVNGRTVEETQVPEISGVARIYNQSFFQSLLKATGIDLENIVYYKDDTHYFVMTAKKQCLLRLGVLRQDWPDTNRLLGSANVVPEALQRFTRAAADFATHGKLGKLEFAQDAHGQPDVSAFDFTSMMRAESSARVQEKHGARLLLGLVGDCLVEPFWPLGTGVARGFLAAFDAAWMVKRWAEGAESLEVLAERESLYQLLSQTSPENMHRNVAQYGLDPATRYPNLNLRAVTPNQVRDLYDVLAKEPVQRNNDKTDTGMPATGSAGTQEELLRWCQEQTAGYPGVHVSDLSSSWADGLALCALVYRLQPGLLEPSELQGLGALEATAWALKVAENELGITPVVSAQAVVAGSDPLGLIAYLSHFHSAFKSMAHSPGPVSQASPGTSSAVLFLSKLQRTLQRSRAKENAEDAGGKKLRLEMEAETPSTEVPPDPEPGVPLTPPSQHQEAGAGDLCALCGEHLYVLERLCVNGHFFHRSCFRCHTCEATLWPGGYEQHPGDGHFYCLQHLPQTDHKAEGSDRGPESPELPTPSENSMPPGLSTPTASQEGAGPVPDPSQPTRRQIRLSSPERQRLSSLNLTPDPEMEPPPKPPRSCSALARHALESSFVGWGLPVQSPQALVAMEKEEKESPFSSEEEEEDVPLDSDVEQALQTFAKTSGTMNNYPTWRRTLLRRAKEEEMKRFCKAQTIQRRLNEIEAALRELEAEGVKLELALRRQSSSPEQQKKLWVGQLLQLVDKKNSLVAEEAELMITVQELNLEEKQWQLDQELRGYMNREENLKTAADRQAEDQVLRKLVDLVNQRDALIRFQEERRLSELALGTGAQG

**Q.** With “human Rab8a 1-181 with the constitutively active mutation Q67L (from UniProt P61006 1-181) (domain or fragment)” as the substance, how does the fold enhancement of NADPH turnover of MICAL1 (0.5 μM) on adding Rab8a (40 μM) read?
**A.** Its fold enhancement of NADPH turnover of MICAL1 (0.5 μM) on adding Rab8a (40 μM) is 4 fold.

— PMC11315924
